Assay results reported in article PMC10397247.

Tests used:
4H2691-bH = target: T1, 4H2691-bH; assay: two-hybrid library CCNG1;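 note: natural log of median RNA to DNA barcode read ratio; higher means stronger binding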
T1 chain: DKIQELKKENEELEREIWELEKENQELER

4H342-bH = target: T2, 4H342-bH; assay: two-hybrid library CCNG1;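 note: natural log of median RNA to DNA barcode read ratio; higher means stronger binding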
T2 chain: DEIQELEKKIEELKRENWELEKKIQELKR

4H3070-bH = target: T3, 4H3070-bH; assay: two-hybrid library CCNG1;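 note: natural log of median RNA to DNA barcode read ratio; higher means stronger binding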
T3 chain: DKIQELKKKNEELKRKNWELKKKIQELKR

4H1347-bH = target: T4, 4H1347-bH; assay: two-hybrid library CCNG1;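 note: natural log of median RNA to DNA barcode read ratio; higher means stronger binding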
T4 chain: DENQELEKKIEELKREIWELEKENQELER

4H496-bH = target: T5, 4H496-bH; assay: two-hybrid library CCNG1;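 note: natural log of median RNA to DNA barcode read ratio; higher means stronger binding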
T5 chain: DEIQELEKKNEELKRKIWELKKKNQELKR

4H3632-bH = target: T6, 4H3632-bH; assay: two-hybrid library CCNG1;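 note: natural log of median RNA to DNA barcode read ratio; higher means stronger binding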
T6 chain: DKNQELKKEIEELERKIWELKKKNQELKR

4H145-bH = target: T7, 4H145-bH; assay: two-hybrid library CCNG1
T7 chain: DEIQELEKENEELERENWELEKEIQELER

4H2619-bH = target: T8, 4H2619-bH; assay: two-hybrid library CCNG1
T8 chain: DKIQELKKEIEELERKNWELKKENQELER

Core_NINN-es_KKKE = target: T9, Core_NINN-es_KKKE; assay: two-hybrid library CCmax; conditions: mean of both orientations
T9 chain: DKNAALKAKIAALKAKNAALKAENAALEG

4H2915-bA = target: T10, 4H2915-bA; assay: two-hybrid library CCNG1
T10 chain: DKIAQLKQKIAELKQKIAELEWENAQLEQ

4H477-bA = target: T11, 4H477-bA; assay: two-hybrid library CCNG1
T11 chain: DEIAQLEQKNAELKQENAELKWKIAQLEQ

4H492-bA = target: T12, 4H492-bA; assay: two-hybrid library CCNG1
T12 chain: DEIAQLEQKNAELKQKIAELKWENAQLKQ

4H3277-bA = target: T13, 4H3277-bA; assay: two-hybrid library CCNG1
T13 chain: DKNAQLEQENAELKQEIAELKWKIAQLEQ

4H348-bA = target: T14, 4H348-bA; assay: two-hybrid library CCNG1
T14 chain: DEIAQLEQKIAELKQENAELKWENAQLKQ

4H121-bA = target: T15, 4H121-bA; assay: two-hybrid library CCNG1
T15 chain: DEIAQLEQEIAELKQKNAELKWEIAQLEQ

4H3057-bA = target: T16, 4H3057-bA; assay: two-hybrid library CCNG1
T16 chain: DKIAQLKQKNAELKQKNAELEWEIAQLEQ

4H2839-bA = target: T17, 4H2839-bA; assay: two-hybrid library CCNG1
T17 chain: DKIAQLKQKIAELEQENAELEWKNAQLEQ

4H741-bA = target: T18, 4H741-bA; assay: two-hybrid library CCNG1
T18 chain: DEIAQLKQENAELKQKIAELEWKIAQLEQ

4H2223-bA = target: T19, 4H2223-bA; assay: two-hybrid library CCNG1
T19 chain: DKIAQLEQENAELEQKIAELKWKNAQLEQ

4H2143-bA = target: T20, 4H2143-bA; assay: two-hybrid library CCNG1
T20 chain: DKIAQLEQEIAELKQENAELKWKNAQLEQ

4H2503-bA = target: T21, 4H2503-bA; assay: two-hybrid library CCNG1
T21 chain: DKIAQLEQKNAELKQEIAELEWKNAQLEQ

4H2473-bA = target: T22, 4H2473-bA; assay: two-hybrid library CCNG1
T22 chain: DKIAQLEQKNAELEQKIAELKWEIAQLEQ

4H40-bA = target: T23, 4H40-bA; assay: two-hybrid library CCNG1
T23 chain: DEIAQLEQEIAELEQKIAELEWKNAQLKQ

4H319-bA = target: T24, 4H319-bA; assay: two-hybrid library CCNG1
T24 chain: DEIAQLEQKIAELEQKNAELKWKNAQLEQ

4H2717-bA = target: T25, 4H2717-bA; assay: two-hybrid library CCNG1
T25 chain: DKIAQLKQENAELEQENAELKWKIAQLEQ

4H2438-bA = target: T26, 4H2438-bA; assay: two-hybrid library CCNG1
T26 chain: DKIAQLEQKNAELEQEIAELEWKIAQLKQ

4H2444-bA = target: T27, 4H2444-bA; assay: two-hybrid library CCNG1
T27 chain: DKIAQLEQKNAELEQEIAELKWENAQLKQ

4H182-bA = target: T28, 4H182-bA; assay: two-hybrid library CCNG1
T28 chain: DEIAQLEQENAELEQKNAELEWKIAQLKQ

4H2588-bA = target: T29, 4H2588-bA; assay: two-hybrid library CCNG1
T29 chain: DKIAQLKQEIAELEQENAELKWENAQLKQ

4H2692-bA = target: T30, 4H2692-bA; assay: two-hybrid library CCNG1
T30 chain: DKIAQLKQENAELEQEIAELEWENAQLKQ

4H2134-bA = target: T31, 4H2134-bA; assay: two-hybrid library CCNG1
T31 chain: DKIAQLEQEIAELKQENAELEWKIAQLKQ

Core_IINI-es_KKEK = target: T32, Core_IINI-es_KKEK; assay: two-hybrid library CCmax; conditions: mean of both orientations
T32 chain: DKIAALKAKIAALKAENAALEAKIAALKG

Core_NIIN-es_KKEE = target: T33, Core_NIIN-es_KKEE; assay: two-hybrid library CCmax; conditions: mean of both orientations
T33 chain: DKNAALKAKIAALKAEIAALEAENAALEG

B1: 4H1347-bH (peptide)
chain: DENQELEKKIEELKREIWELEKENQELER
- interaction score (4H2691-bH): -0.275
- interaction score (4H342-bH): -0.391
- interaction score (4H3070-bH): -0.395
- interaction score (4H1347-bH): 0.364
- interaction score (4H496-bH): -0.415
- interaction score (4H3632-bH): 1.71
- interaction score (4H145-bH): -0.368
- interaction score (4H2619-bH): -0.987

B2: Core_NINN-es_EEEK (peptide)
chain: DENAALEAEIAALEAENAALEAKNAALKG
- interaction score (Core_NINN-es_KKKE): 2.16

B3: 4H121-bA (peptide)
chain: DEIAQLEQEIAELKQKNAELKWEIAQLEQ
- interaction score (4H2915-bA): -0.0952
- interaction score (4H477-bA): -1.12
- interaction score (4H492-bA): -1.44
- interaction score (4H3277-bA): -1.51
- interaction score (4H348-bA): -1.19
- interaction score (4H121-bA): -0.103
- interaction score (4H3057-bA): 0.0584
- interaction score (4H2839-bA): 0.693
- interaction score (4H741-bA): -1.09
- interaction score (4H2223-bA): 0.764
- interaction score (4H2143-bA): -0.624
- interaction score (4H2503-bA): -1.32
- interaction score (4H2473-bA): -1.11
- interaction score (4H40-bA): -0.579
- interaction score (4H319-bA): -1.51
- interaction score (4H2717-bA): -0.497
- interaction score (4H2438-bA): 1.56
- interaction score (4H2444-bA): -3.87
- interaction score (4H182-bA): -1.13
- interaction score (4H2588-bA): -0.283
- interaction score (4H2692-bA): -0.366
- interaction score (4H2134-bA): 1.92

B4: Core_IINI-es_EEKE (peptide)
chain: DEIAALEAEIAALEAKNAALKAEIAALEG
- interaction score (Core_IINI-es_KKEK): 2.32

B5: Core_NIIN-es_EEKK (peptide)
chain: DENAALEAEIAALEAKIAALKAKNAALKG
- interaction score (Core_NIIN-es_KKEE): 2.03
